Columns and labels:
[1] = molecular target: T1, WBP319-hPro2.ECD.His (R&D) (human, UniProt P12830 155-709); experiment: capture ELISA, antigen held by anti-His antibody
T1 construct: extracellular domain; Bought protein; also called human E-Cadherin.ECD.His; Human E-Cadherin
T1 sequence (looked up): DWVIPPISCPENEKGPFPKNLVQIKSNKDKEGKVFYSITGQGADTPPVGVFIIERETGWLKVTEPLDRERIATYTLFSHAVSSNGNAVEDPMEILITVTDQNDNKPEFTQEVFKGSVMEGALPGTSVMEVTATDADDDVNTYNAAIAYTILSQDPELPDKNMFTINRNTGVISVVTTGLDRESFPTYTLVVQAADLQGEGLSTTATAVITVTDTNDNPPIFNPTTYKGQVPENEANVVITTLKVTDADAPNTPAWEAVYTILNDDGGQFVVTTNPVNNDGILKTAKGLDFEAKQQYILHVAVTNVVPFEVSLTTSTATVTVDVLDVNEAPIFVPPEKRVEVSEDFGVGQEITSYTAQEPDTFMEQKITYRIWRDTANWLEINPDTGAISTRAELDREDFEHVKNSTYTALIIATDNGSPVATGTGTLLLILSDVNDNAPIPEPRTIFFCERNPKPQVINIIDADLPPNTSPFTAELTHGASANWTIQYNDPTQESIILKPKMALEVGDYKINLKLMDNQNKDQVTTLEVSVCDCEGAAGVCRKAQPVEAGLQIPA
Description: (§1) The binding of the antibodies to human E-Cadherin.ECD.His (R&D-8505-NC-050, WBP319-hPro2.ECD.His (R&D)) and human N-Cadherin.ECD.His (R&D-1388-NC-050, WBP319-hPro3.ECD.hFcHis (R&D)) were tested by a captured protein binding ELISA. 96-well high protein binding ELISA plates (Nunc MaxiSorp, ThermoFisher, Cat #: 442404) were coated overnight at 4° C. with 1 μg/mL capture antibody (THETM His Tag mAb, GenScript, Cat #: A00186) in Carbonate-bicarbonate buffer (20 mM Na2CO3, 180 mM NaHCO3, pH=9.2). All wells were washed three time with 300 μL per well of PBS/0.5‰ Tween-20 (v/v) and all the following wash steps in the assay were performed the same. The wells were then blocked for one hour with 3% milk (Shanghai Dingguo-DH220)/1×PBS (Ca+/Mg+) (Gibco, #14040-117) and washed three times, followed by binding of 1 μg/mL antigens in 3% milk/1×PBS (Ca+/Mg+) for 1 hour at room temperature and three washes afterwards. […]
(§2) For the binding detection, 100 μL Tetramethylbenzidine (TMB) Substrate solution (Invitrogen, Cat #: 002023) was added to all wells for 10 minutes before stopping the reaction with 100 μL 2M HCl. The extent of the testing Abs binding to WBP319-hPro2.ECD.His (R&D)) and WBP319-hPro3.ECD.hFcHis (R&D) were determined by measuring the OD450 absorbance using the SpectraMax® M5e microplate reader. […]

[2] = molecular target: T2, WBP319-hPro3.ECD.hFcHis (R&D) (human, UniProt P19022 160-724); experiment: capture ELISA, antigen held by anti-His antibody
T2 construct: extracellular domain; Bought protein; the text calls it ECD.His, the code says hFcHis; also called human N-Cadherin.ECD.His; Human N-Cadherin; not shown: human Fc and His tag by the code hFcHis
T2 sequence (looked up): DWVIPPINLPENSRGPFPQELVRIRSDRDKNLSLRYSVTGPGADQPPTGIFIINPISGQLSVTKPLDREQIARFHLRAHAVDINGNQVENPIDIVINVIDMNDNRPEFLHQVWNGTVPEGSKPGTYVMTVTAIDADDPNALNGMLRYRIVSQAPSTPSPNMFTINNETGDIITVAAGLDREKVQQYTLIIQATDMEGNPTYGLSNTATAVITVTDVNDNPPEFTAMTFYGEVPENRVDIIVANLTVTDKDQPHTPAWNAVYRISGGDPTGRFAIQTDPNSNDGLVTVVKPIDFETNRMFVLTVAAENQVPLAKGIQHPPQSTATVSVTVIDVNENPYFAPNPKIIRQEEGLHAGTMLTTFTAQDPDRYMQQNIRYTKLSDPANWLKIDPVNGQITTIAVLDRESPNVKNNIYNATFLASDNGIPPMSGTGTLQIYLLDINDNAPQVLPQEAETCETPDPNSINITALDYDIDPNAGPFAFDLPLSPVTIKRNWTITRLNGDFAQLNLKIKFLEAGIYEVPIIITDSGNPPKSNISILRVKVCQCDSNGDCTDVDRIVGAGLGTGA
Description: as §1, §2

EC50 [1]: > 100 nM | EC50 [2]: > 100 nM
B1: W3195-1.53.1-p1-uIgG1L (antibody)
heavy: not shown
light: SYELTQPPSVSVSPGQTAQITCSGDKLGDKFASWYQQKSGQSPVVVIYQDNKRPSGFPERFSGSNSGNTATLTISGTQAMDEADYYCQAWDSSIVVFGGGTKLTVLGQPKAAPSVTLFPPSSEELQANKATLVCLISDFYPGAVTVAWKADSSPVKAGVETTTPSKQSNNKYAASSYLSLTPEQWKSHRSYSCQVTHEGSTVEKTVAPTECS
notes: also called W3195-p1 antibody

Source: patent US20240034786A1 (WUXI BIOLOGICS IRELAND, published 2024)
